Source: PMC10518940

Target: T1, HA-CXCR4-Rluc8 (human), P61073
T1 chain: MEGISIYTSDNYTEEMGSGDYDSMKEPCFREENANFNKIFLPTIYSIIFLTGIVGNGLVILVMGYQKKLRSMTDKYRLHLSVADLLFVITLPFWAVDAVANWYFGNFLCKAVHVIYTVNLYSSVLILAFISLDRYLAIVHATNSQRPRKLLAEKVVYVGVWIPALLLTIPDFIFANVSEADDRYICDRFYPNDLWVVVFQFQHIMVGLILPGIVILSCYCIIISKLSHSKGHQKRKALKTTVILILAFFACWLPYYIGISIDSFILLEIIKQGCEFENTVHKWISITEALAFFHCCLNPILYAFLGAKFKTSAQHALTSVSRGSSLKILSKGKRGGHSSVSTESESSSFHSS
Assay: FRET or BRET; BRET2 saturation in HEK293A cells: fixed amount of GPCR-Rluc8 plasmid, increasing amounts of GPCR-GFP2 plasmid (0 to 390 ng); coelenterazine 400a 5 μM; BRET50 from the net BRET ratio
Details: remark: other sources report otherwise

BRET50: 0.244
B1: CXCR4-GFP2, P61073 1-352 (receptor)
chain: T1 chain
